The source of these data is the NTF2 design screens of Basanta et al. (2020).

A short description of the data set: protease stability score; higher = more stable; yeast display proteolysis, trypsin and chymotrypsin.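 Also: log10 excess protease needed over predicted unfolded state with 0 meaning unfolded.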

Sequence “DDEIRRQVHRYLRALQRNDEKLASDLLDPNAKFVYGDKTVHGREQHKKELRKMKDQWEFSVDVKKVKVQGNKIKVTADIRVDVNGRPMSHRYVVIFHAHNGKIKNAEFRMDEKYYRDVKR” gave a protease stability score of 0.208.

The sequence “DDEIWSQIEHLLEIFKTGDEERYREQVDPNAKADVGDKKIHGRERIARHLYHLAKNMTIKREVDSVNIQGNEVSASFEVTVNINGNPIRFTVRVNYNFHNGRLQTFEIDVSEDLTKHMDS” yielded a protease stability score of 1.9.

“DDEKAKEMMKVWKSGDEEDLVRLADENVSVVVGDHRVRGREEFKKWLHRLSEQVDRWKVDSVHAHNGRIQIDAVYVVNGQEFRLTIHVTMRNGRIKTVRAQVTTEDDERKLKKVVS”: the protease stability score came out at 0.63.

“DDEKARQQVREFIRAMETGDEDSMVQQLDENAHVHIGDHVWRGREQARNAFKEFVKQFDRIEVKRVEYRNGDVVIDAVANVNGVRVRIIFKIHIHNGRIKNLRIEYRDEEEKKQLDG” gave a protease stability score of 1.99.

As to “DDEKARRWLHTMRDVINRGDPDKWRKLVDENVRLEIGDKEYHGREDARKWMKELRDQVDEIHIKTISAHGDKIEVTMEYKHNGRTRRITVVARIRDGRIKMVQVRDS”, the protease stability score was found to be 1.8.

Take “DDEKKAKSFVDDLRKILKTGDPEQMRDNADKDARLVIGDQTFHGREDAASKLVTLVKRFDHARFNVKSMTMHNGRIDVDMTFTLRVDGKNERHRVKITVEEHNGRLKMKEVHWS”: the protease stability score stood at 0.991.

“DDEKKARTLLKQLKEAFENNDEDRARQLMDKDVRLDIGDKTYHGREEAAEAWHRLVETVDHMDMKVRHIENRNGHMVVNADMVLHRDGRQKRLKVTFTARDDNGHAVLVHVSFD” registered a protease stability score of 1.45.

In the case of “DDEKLANEFQTKFRSVMETNDEENMRKLADKDARLNVGDDDVHGREQVARYLAEVLRRVDTFRVRYEDVDIRNGQVRVTMEIHNNHNGSDRTDRVHLQMEVTGDTASLKRITEG”, the protease stability score amounted to 0.259.

Regarding “DDEKLAREFQEKLREALRSGDDKKMVELMDKDARVVVGDKEIQGREEIAKTWATKATQADHVEVHIRNLRVENGRVTVNVEVRLNNNGQDRTNNNTLQNEVHNGHIHMKRQKEN”, the protease stability score was -0.274.

For the sequence “DDEKLTTVLKELMKAFEKGDNKKFVDLLDKDVTIDYGDKKVHGRDEATEVFHKIRRQVDHVQVSDMKFENGRASIRATLHFNGKNMEVTFEAVIKNGRIKHAQVEVRDPDELRKMES”, the protease stability score amounted to 1.03.

For “DDEKQAHRAFEEWERALRTGNEEDLKRLADENVQVQVGDKQLDGREEVVKWMLDQAERVDHIQIDIKHLRIQNGRVEVNIIIQNNHNGQNQTHTMVVVMRNHNGNLYISDVQRR”, the protease stability score came out at 1.31.

Regarding “DDEKQHTIAKQLVEVLQQNDPDQQRDMVDENANIDIGDKTYQGQEDARKAMDELRRQIDHLTVTSFNVHNGRVEIRARARVNGTDVTVHIEAQLHNGRVKKMKIKYG”, the protease stability score is -0.196.

“DDEKQVREVVTDFIQALEEGDEKRVRQLIDPNASADVGDRKYHGREQVAEMVREQMDQVDHIEFTLRKVEIQGEEVVVRVEVVLNHNGQEKQIHMTLIFVVKNGHLQLKEIHQD” returned a protease stability score of 1.37.

As for “DDEKRASKFAKKLVDAFKHGDPDRFSRMVDENVRFQVGDTQYHGREDAHNLMQELRDKVDHIHVRLTQLEVKGDKADVHMNLQYKHNGKNNDVRMRAVATDNNGRLLVTHFRIN”, the protease stability score came out at 1.26.

Sequence “DDEKREKILKTFVDLFMNGDEEDIQRMMDENARASVGDKTYHGQEQVNKALKEIRDQFDRVEVKHIHVSGDKFRINMVINVNGKHVHVEVEISVHNGRIHEISFDPEHLTKMRN” showed a protease stability score of 0.444.

“DDEKRKDILRKIKENWKRNDHDFFKDMADPNVRAKVGDKLLHGREELEKELREFKKRADHVEIKHVDVTGDNAEVEADIDINGQKRVMVFQVEVHNGKIKHIELDPDDQRKVQK” registered a protease stability score of 0.145.

In turn, “DDEKTRDLLRKAMRAFITGDPDTLRHLFDKDARARYGDKEVRGREQIQHQLREIRSTVDHIDVKDMEVQGNHATLSLSLVVNGREVKVRVKIVVHNGRAQSVTMDPHDIRKLNS” gave a protease stability score of 1.29.

With “DDEKVAEQIMNEVLTAIKNNDPQEAADNMDKDARAEVGDNDLTGRERLSKWWVTMANRADHITAHVDSVDEQGDKIHVVWKYTADINGQQVSKDIKFVVVRQNGRVKIKRIKND”, the protease stability score worked out at 1.11.

In the case of “DDEKVKSFMKNVVRAWKHNNPDEMAKLADPNARAHVGDKEVHGRHQVKTMITEQLTRVDHVDIRHVHANGDKITIHATLNVNGRTRSVKIEIRFDNGKITDIRMDPDAVKEIKK”, the protease stability score was 0.199.

Take “DDEKVQKAAHNLIQAIKSGDEDRMRKLMDPNVRVVVGDKEVSGSDDAARFLRELRERVDHVEVKRVEAHNGRIKIDAVNRHNGHDHRFVLEAEVHNGTVKQIRIKEQ”: the protease stability score came out at 1.43.

In turn, “DDELEEQVKKWLENLKNNNEEELQKQMDPNAKMQYGDKEYHGMHDALKTLAQEDRELRYNVRIISINVQGDRVHITRRINRDHDGRPSQKKYKLNLRLHNGRNQHFREQEDG” showed a protease stability score of -0.102.

“DDELEKLITRWLEALDTNNPRQVKSNIDPNVHIEIGDKKIHGREQAMKDIHHRLERMRVEFDLKSLDSHGERASFRFRLHIRFNGRPIDIDAEVSVQVHNGKFKKMSQRISEEQAKQMSE”: the protease stability score was 0.403.

For the sequence “DDELHKLAEEFVTALQKGDPDRANSLFDPNAKFVVGDEVLHGREDFEKWLDELKHQMRIQFESVKIDKRPGRIIIDNVFRVHVNGKPDQIRIEIDIQVHNGKIKEVIYRMDPDKFREVMS”, the protease stability score came out at 1.3.

Consider “DDELKRIVHQLMEALKHGDNDQWRKNVDPNVSVKIGDKELHGREEFARQIQRIKRELHLEIDIHDVKVKNGRADLDMTETRSENGQPETNRLRISYVIDNGKFKSVTLNIKQ”, for which the protease stability score was found to be 0.222.

“DDELQHQVERFLTNIEHGDPDKIQRQVDKDVNARVGDETLHGSDQLKDTWHDTQRQMRFSFHVTKYDAREGHVDITAHITMDRNGKPESRQVRVRFNINNGKLREVDMQLRG” registered a protease stability score of 1.04.

“DDELRHVAERFVQALDEGDPNELKEMADPNARMQVGDKYITGMETFVKHERKKMEKIRIEVVDFKANVNGDKVQVHFDVRFEVNGQPRRYSYVVIFQFRNGRISHVNVQVDPRQLKKNES” yielded a protease stability score of 1.04.

Regarding “DDELVRSAEHLFKVWQDGNPDEAKRYMDPNAELKVGDKTVHGRDDANRWVEQLQRELRYHFTINNVERQGNTVVIKATATEHHNGKPKTYSVDIEIEAQNGKVKLVIIRING”, the protease stability score is -0.09.

On to “DDEMIRVYREMQKALQDNDPERAKELMDPNAKLRYGDKVFHGREEFAKDMERRHHESRVQIRHLKVEDQGEKAVARFNEVNNSNGRPNSKSVSVELEAHNGKLVHVRAQDTK”, for which the protease stability score was -0.172.

“DDEMKKVVSRFVEAEKQGNPEDLKRNADPNVKVQVGDKTVNGRDKWATDLHKRRRDIDVEREYKSVHLTGDHLTMDVEAVYNVNGTPHKMRVTLRVVAHNGKIKKMHVQLSEEELRRLDR” gave a protease stability score of 0.229.

Sequence “DDENMSAFERWLHAVETGNPQKVKEQMDENAKLDVGEKDVTGMDEIRRQLEKEMKRMRVTIQRYDLQVHNGQVVVRQTVVNKNDGQPRRRTNVVHVDIRNGRIQRIIQRDDG” showed a protease stability score of 0.42.

Sequence “DDENNKILEEYLKAEQTNDPDRAVELMRDDVRMQVGDHRVHGREEVRKRIHQIKDTMRVQIDDLRVTVKGESVVANLDAQVRINGQPVRFRASVRADFHNGKIVHHRVHISEEQQERLKK” had a protease stability score of 0.272.

On to “DDENQQHFAEKMATAVIKNDPDEIVRLADPNVQVQVGEKEVHGREEVHELMEELKDQADHVHLVSVHVSNGQVNIVVDVVVNGKRLRVTITVKFNNGKVRYIRVDPEFQRKMDK”, for which the protease stability score was -0.095.

“DDENRHMAEEMMQIFKHGDHDRHRQLIDPNVKVKIGDKEYHGMEKLVQRHKEEVDQIRFEVKTVSVHNQGDKLKVEWRYVADFNGRPHDVRDDYTIDVRNGKVRSIDYNVDPRELETLLR”: the protease stability score was -0.128.

The sequence “DDENRKRAEEWLQAVQEGNEHQVMELADPNVRFVIGDKTLHGREQLSEWVKRVHDQMRFSVEIKHVRVHGDKVLITVRHTANVNGKPFDDTLIIKVVINNGKFQRIELRVDPEKLKHLKT” came in with a protease stability score of 1.01.

As to “DDENRRFAERLMKVWRTNNEEDARTLFDKDVRFEIGDKVLHGKEQYAQSVRDIKKEMRFDARVRSIDVRGEKVVVLYDVEVQHNGRPQTKQVIFIANVHNGRIKEARVEDTQ”, the protease stability score came out at 0.271.

Turning to “DDENRRRAETWFRNIQDNNPELIRHMFDEDARLEVGDKEIQGREHFEEQMKRDVEEMRLDLKVKSVEVRGNDVTVKAEAQDDRNGHPRNFTFRIRIRYHNGRVKHVHMDRQG”, the protease stability score was found to be 0.092.

In turn, “DDENVEIAEKIVKAEQSGDEDHLRELADPNARFHVGDKHVSGMEKFLKDFQHEFEELRFSIKVTSVTQSNGKVHMTATATRHRNGRPDSFTANRRFLFHNGKAKEVSQDNRK” yielded a protease stability score of -0.352.

Take “DDENVKKFAKELLHVIKDNDEDRFRKLAPPNVEAQYGDKTIRGRESAATQFSRVATRIDHVRLEHMTVQGEHVVMKMEVDVNGRNKQLRIVFHVRNGKITSFSMDPEAQRVNSQ”: the protease stability score worked out at 0.594.

For the sequence “DDEQANEIISIMETGDPDKLSNMADENAKIVIGDTQIHGREDYERVATILYKQIDHHHFEHLTFTGDKVVIVWQYVVNGKQVRQRVKFDVHNGRLKHMRMEFTDPEELKIVEEILS”, the protease stability score turned out to be 1.59.

“DDEQDAREFVKKFVDVMRENNPRELVKMADPNVKVDVGDHRLNGREDLERKRKREADRADHIDVKVTKLHVNGDTVQAHFSFTIRHDGRNERKSETIIARKHNGRVKIKSIKNS” came in with a protease stability score of -0.13.

For “DDEQDKKAEKLVNTGNFHDMANNADPNARIVVGDKRFHGREQFHTFMESLQTTIDHLQIKDIKRRPNHVEADVVAEVNGRRITFVILMVVHNGRIKNVEFKFRDEEDERVMEQILR”, the protease stability score came to 0.947.

“DDEQDRDFVQTMREAIDRGDFKKIARMADKDVKVVIGDKNVTGRETLTHLLKDFVDKFDHIRVRHIDAHNGSVDIDMTADHNGDKRQYRIRVNVSNGQVKEFQLKQT”: the protease stability score came out at 0.453.

“DDEQINEFVKVMKTNDFKRLMDQADPNVSVSIGNFTVKGDKQAQKAARDLEEQADHIQIDSLTAHDGRLDVTLQMVFNGRDIRMSIKAEAHNGRLKSMKFQATSEEIEKILDEVLR” registered a protease stability score of -0.142.

With “DDEQLKKLAQKFADNMQSGNEEEFDRMAPPEVRVQIGDKTYKGRDKVKEMMKRFRTTADHVRIESFEAHNGQITFNVIIQVNGKSHRIRLRIQARNGQVKQFDLNPDDQRKVEK”, the protease stability score worked out at 0.18.

In turn, “DDEQRKDLAHDFLHAWKKGDEKLFDNLVDENVSAQYGDKTYHGRESISTFVRNYKKRADHFRVHDMQLSNGSVRMDVEAEVNGVDVRVTFHVFFHNGRVKSLQQDFTDEDVKRRHES” gave a protease stability score of 0.604.

“DDEREREFEHFLRVVEEGNPEELKKLLDPNVRIEYGDKVIHGREEYAKRVHETVKELRFSMSIHDVKVNGDTVEVDATSSWTHNGQPNKDQNVLVIRFHNGKFKEIRHDKDR” displayed a protease stability score of 0.607.

“DDERITELVTRFEKALQRGDNDEMERLMDPNARVRYGDKEYHGREDIKRALKEEKKRVDHFRLESVRWKNGHVEIFMKFTVNGRTEHRVFDIQLHNGRMKEMELTTS” yielded a protease stability score of 1.15.
